Measurements from the Human Domainome abundance scans (Beltran et al. 2025).
± gives the uncertainty stated by the source.

B1: Histone-lysine N-methyltransferase SETD2, residues 2382 to 2430; numbered along this chain, Q9BYW2 (parent)
chain: SPPKPKTIVLPPNWKTARDPEGKIYYYHVITRQTQWDPPTWESPGDDAS

Variants of: B1
Assay: abundance fitness (aPCA) (normalised: wild type 0, dead -1); higher = more abundant; growth selection in yeast, the domain comes from the species named
Details: Homo sapiens
P44K gave an abundance fitness of -0.128 ± 0.1. P44N showed an abundance fitness of -0.196 ± 0.1. P44E gave an abundance fitness of -0.096 ± 0.075. For P44S, the abundance fitness was -0.166 ± 0.054. With P44A the abundance fitness was -0.115 ± 0.071. With P44M the abundance fitness was -0.016 ± 0.038. P44C showed an abundance fitness of -0.448 ± 0.13. In the case of P44T, the abundance fitness is reported as -0.103 ± 0.083. P44V gave an abundance fitness of -0.263 ± 0.042. With P44D the abundance fitness was -0.108 ± 0.087. With P44W the abundance fitness was -0.283 ± 0.072. P44H gave an abundance fitness of 0.036 ± 0.097. Variant P44Q has an abundance fitness of -0.067 ± 0.087. Work on P44I yielded an abundance fitness of -0.452 ± 0.18. Variant P44F has an abundance fitness of -0.654 ± 0.25. In the case of P44R, the abundance fitness is reported as -0.031 ± 0.054. P44G showed an abundance fitness of -0.128 ± 0.047. W41H showed an abundance fitness of 0.117 ± 0.081. W41C showed an abundance fitness of 0.04 ± 0.045. W41K gave an abundance fitness of 0.165 ± 0.041. W41F gave an abundance fitness of 0.334 ± 0.092. In the case of W41A, the abundance fitness is reported as 0.07 ± 0.058. For W41P, the abundance fitness was -0.058 ± 0.095. Work on W41M yielded an abundance fitness of 0.16 ± 0.033. With W41Y the abundance fitness was 0.338 ± 0.084. With W41R the abundance fitness was 0.091 ± 0.036. Work on W41S yielded an abundance fitness of 0.195 ± 0.042. Work on W41V yielded an abundance fitness of 0.077 ± 0.035. W41Q gave an abundance fitness of 0.249 ± 0.04. For W41D, the abundance fitness was 0.06 ± 0.1. For W41G, the abundance fitness was 0.034 ± 0.051. With W41E the abundance fitness was 0.166 ± 0.046. W41I gave an abundance fitness of 0.05 ± 0.069. For W41L, the abundance fitness was 0.078 ± 0.033. Variant S49F has an abundance fitness of -0.391 ± 0.099. S49C gave an abundance fitness of -0.467 ± 0.14. With S49I the abundance fitness was -0.088 ± 0.048. Work on S49N yielded an abundance fitness of -0.696 ± 0.2. For S49P, the abundance fitness was 0.043 ± 0.05. S49A gave an abundance fitness of -0.418 ± 0.093. Work on S49Q yielded an abundance fitness of -0.031 ± 0.2. With S49V the abundance fitness was -0.62 ± 0.19. For S49R, the abundance fitness was -0.158 ± 0.11. Variant S49M has an abundance fitness of -0.154 ± 0.33. For S49T, the abundance fitness was -0.013 ± 0.045. With S49Y the abundance fitness was -0.194 ± 0.067. Work on S49E yielded an abundance fitness of -0.279 ± 0.19. D47E showed an abundance fitness of 0.035 ± 0.051. D47L showed an abundance fitness of -0.107 ± 0.042. With D47F the abundance fitness was -0.443 ± 0.1. In the case of D47T, the abundance fitness is reported as -0.032 ± 0.059. Variant D47S has an abundance fitness of 0.037 ± 0.056. With D47M the abundance fitness was -0.226 ± 0.077. Work on D47Y yielded an abundance fitness of -0.023 ± 0.054. D47I gave an abundance fitness of -0.337 ± 0.075. In the case of D47Q, the abundance fitness is reported as 0.257 ± 0.064. Variant D47G has an abundance fitness of -0.002 ± 0.032. With D47P the abundance fitness was -0.2 ± 0.078. In the case of D47K, the abundance fitness is reported as -0.16 ± 0.054. In the case of D47H, the abundance fitness is reported as -0.028 ± 0.042. D47W showed an abundance fitness of -0.288 ± 0.068. Work on D47R yielded an abundance fitness of -0.146 ± 0.041. Variant D47V has an abundance fitness of -0.063 ± 0.037. Work on D47A yielded an abundance fitness of -0.051 ± 0.033. Variant D47N has an abundance fitness of -0.241 ± 0.062. D47C showed an abundance fitness of -0.206 ± 0.072. Work on E42L yielded an abundance fitness of -0.412 ± 0.077. E42R showed an abundance fitness of -0.184 ± 0.042. Work on E42M yielded an abundance fitness of -0.457 ± 0.16. E42C showed an abundance fitness of -0.303 ± 0.053. For E42D, the abundance fitness was -0.504 ± 0.17. For E42N, the abundance fitness was -0.173 ± 0.038. With E42S the abundance fitness was 0.011 ± 0.062. With E42T the abundance fitness was -0.341 ± 0.098. For E42Q, the abundance fitness was -0.291 ± 0.066. In the case of E42F, the abundance fitness is reported as 0.124 ± 0.1. For E42K, the abundance fitness was -0.074 ± 0.035. Variant E42A has an abundance fitness of -0.148 ± 0.065. E42W gave an abundance fitness of -0.172 ± 0.066. Variant E42P has an abundance fitness of 0.087 ± 0.082. With E42V the abundance fitness was -0.141 ± 0.048. For E42G, the abundance fitness was -0.053 ± 0.047. Variant G45P has an abundance fitness of 0.233 ± 0.035. With G45R the abundance fitness was 0.035 ± 0.047. G45E gave an abundance fitness of 0.02 ± 0.065. For G45F, the abundance fitness was 0.019 ± 0.069. G45S gave an abundance fitness of 0.025 ± 0.04. G45L gave an abundance fitness of 0.076 ± 0.046. G45A gave an abundance fitness of 0.087 ± 0.041. For G45I, the abundance fitness was 0.125 ± 0.1. For G45M, the abundance fitness was -0.082 ± 0.063. In the case of G45Q, the abundance fitness is reported as -0.313 ± 0.089. Variant G45D has an abundance fitness of -0.061 ± 0.055. Variant G45C has an abundance fitness of -0.002 ± 0.074. In the case of G45T, the abundance fitness is reported as -0.141 ± 0.073. G45Y showed an abundance fitness of 0.049 ± 0.081. In the case of G45W, the abundance fitness is reported as 0.026 ± 0.054. G45K gave an abundance fitness of 0.006 ± 0.088. G45V gave an abundance fitness of -0.177 ± 0.059. G45H showed an abundance fitness of -0.73 ± 0.31. For D46C, the abundance fitness was -0.31 ± 0.042. D46S gave an abundance fitness of -0.167 ± 0.039. D46G gave an abundance fitness of -0.119 ± 0.032. For D46F, the abundance fitness was -0.361 ± 0.13. D46V showed an abundance fitness of -0.064 ± 0.042. D46T showed an abundance fitness of -0.292 ± 0.087. For D46Q, the abundance fitness was -0.358 ± 0.1. D46E showed an abundance fitness of -0.117 ± 0.068. In the case of D46I, the abundance fitness is reported as -0.164 ± 0.066. With D46H the abundance fitness was 0.119 ± 0.1. For D46W, the abundance fitness was -0.358 ± 0.084. Variant D46P has an abundance fitness of -0.069 ± 0.044. With D46N the abundance fitness was -0.11 ± 0.043. For D46L, the abundance fitness was -0.053 ± 0.033. D46R gave an abundance fitness of -0.286 ± 0.046. D46K gave an abundance fitness of -0.166 ± 0.093. For D46Y, the abundance fitness was -0.436 ± 0.14. Variant D46M has an abundance fitness of -0.297 ± 0.092. T40I showed an abundance fitness of -0.629 ± 0.17. T40N showed an abundance fitness of 0.045 ± 0.1. T40Y gave an abundance fitness of -0.123 ± 0.075. With T40M the abundance fitness was 0 ± 0.044. T40Q gave an abundance fitness of 0.277 ± 0.08. Variant T40W has an abundance fitness of -0.232 ± 0.035. With T40S the abundance fitness was 0.062 ± 0.056. With T40P the abundance fitness was 0.017 ± 0.076. For T40R, the abundance fitness was -0.019 ± 0.033. T40V gave an abundance fitness of 0.057 ± 0.048. T40L gave an abundance fitness of -0.071 ± 0.042. S43Q gave an abundance fitness of 0.091 ± 0.08. S43T gave an abundance fitness of -0.061 ± 0.082. With S43V the abundance fitness was -0.045 ± 0.055. S43H showed an abundance fitness of -0.237 ± 0.11. In the case of S43G, the abundance fitness is reported as -0.15 ± 0.05. Variant S43F has an abundance fitness of -0.375 ± 0.071. S43M gave an abundance fitness of -0.102 ± 0.076. S43C gave an abundance fitness of -0.471 ± 0.11. S43R gave an abundance fitness of -0.11 ± 0.042. S43P gave an abundance fitness of -0.321 ± 0.094. S43E showed an abundance fitness of 0.193 ± 0.056. Variant S43D has an abundance fitness of 0.078 ± 0.075. S43A showed an abundance fitness of -0.048 ± 0.041. Variant S43K has an abundance fitness of 0.145 ± 0.042. For S43I, the abundance fitness was -0.095 ± 0.041. S43L showed an abundance fitness of -0.064 ± 0.042. S43W gave an abundance fitness of -0.23 ± 0.088. S43Y showed an abundance fitness of -0.263 ± 0.097. Work on S43N yielded an abundance fitness of -0.369 ± 0.13. Variant A48Y has an abundance fitness of 0.036 ± 0.048. With A48L the abundance fitness was -0.077 ± 0.056. A48W gave an abundance fitness of -0.07 ± 0.072. For A48D, the abundance fitness was 0.1 ± 0.12. With A48G the abundance fitness was -0.014 ± 0.054. A48N gave an abundance fitness of 0.153 ± 0.097. With A48F the abundance fitness was -0.094 ± 0.068. With A48K the abundance fitness was 0.091 ± 0.047. A48M showed an abundance fitness of 0.151 ± 0.09. A48E showed an abundance fitness of 0.1 ± 0.036. With A48Q the abundance fitness was -0.153 ± 0.1. In the case of A48T, the abundance fitness is reported as 0.147 ± 0.041. Work on A48I yielded an abundance fitness of 0.095 ± 0.16. A48S showed an abundance fitness of -0.027 ± 0.067. A48H showed an abundance fitness of -0.081 ± 0.14. A48P showed an abundance fitness of 0.08 ± 0.072. In the case of A48V, the abundance fitness is reported as -0.164 ± 0.057. A48R gave an abundance fitness of 0.107 ± 0.057. Work on A48C yielded an abundance fitness of 0.085 ± 0.044.
